Molecular target: light-harvesting complexes of G. phototrophica (light-harvesting antenna subunits, B868 inner ring and B816 outer ring) (G. phototrophica (endogenous in strain AP64))
Assay: negative-stain TEM with single particle analysis; freshly purified complexes on carbon-coated copper grids, 1.5% uranyl acetate, 200 kV, 2D class averages in RELION

stoichiometry N: 15
Substance: light-harvesting complexes of G. phototrophica (light-harvesting antenna subunits, B868 inner ring and B816 outer ring)

Reference: paper PMC5749889
